Experimental data: patent US20190159997A1, “COMPOSITIONS COMPRISING POLYESTERS OF BIOLOGICAL ORIGIN AND BIOCOMPATIBLE INORGANIC COMPOUNDS, AND USES THEREOF IN THE COSMETIC FIELD” (BIO-ON S.p.A., priority 2016, published 2019)

Test system: Streptococcus mutans ATCC 35668
Assay: antibacterial effectiveness by bacterial count on Petri plates
Format: cell-based
Conditions: growth of Streptococcus mutans ATCC 35668
Protocol: Following the same procedure described in Example 4, two compositions of lactoferrin, hydroxyapatite and PHA were prepared, using solutions of lactoferrin with concentrations equal to 60 mg/ml and 80 mg/ml, and the same aqueous suspensions of HA and PHA used in Example (weight ratio between lactoferrin and mixture of HA+PHA equal to 1:1). The antibacterial effectiveness of these compositions was assessed, by means of bacterial count on Petri plates with respect to the growth of Streptococcus mutans ATCC 35668.

B1: lactoferrin (protein, UniProt P02788 20-710, looked up)
Lactotransferrin: GRRRSVQWCAVSQPEATKCFQWQRNMRKVRGPPVSCIKRDSPIQCIQAIAENRADAVTLDGGFIYEAGLAPYKLRPVAAEVYGTERQPRTHYYAVAVVKKGGSFQLNELQGLKSCHTGLRRTAGWNVPIGTLRPFLNWTGPPEPIEAAVARFFSASCVPGADKGQFPNLCRLCAGTGENKCAFSSQEPYFSYSGAFKCLRDGAGDVAFIRESTVFEDLSDEAERDEYELLCPDNTRKPVDKFKDCHLARVPSHAVVARSVNGKEDAIWNLLRQAQEKFGKDKSPKFQLFGSPSGQKDLLFKDSAIGFSRVPPRIDSGLYLGSGYFTAIQNLRKSEEEVAARRARVVWCAVGEQELRKCNQWSGLSEGSVTCSSASTTEDCIALVLKGEADAMSLDGGYVYTAGKCGLVPVLAENYKSQQSSDPDPNCVDRPVEGYLAVAVVRRSDTSLTWNSVKGKKSCHTAVDRTAGWNIPMGLLFNQTGSCKFDEYFSQSCAPGSDPRSNLCALCIGDEQGENKCVPNSNERYYGYTGAFRCLAENAGDVAFVKDVTVLQNTDGNNNEAWAKDLKLADFALLCLDGKRKPVTEARSCHLAMAPNHAVVSRMDKVERLKQVLLHQQAKFGRNGSDCPDKFCLFQSETKNLLFNDNTECLARLHGKTTYEKYLGPQYVAGITNLKKCSTSPLLEACEFLRK
notes: lactoferrin alone, aqueous solution with a concentration of 60 mg/ml and 80 mg/ml; protein having an antioxidizing action
Reduction bacterial growth (%) (lactoferrin solution 60 mg/ml): 30% | Reduction bacterial growth (%) (lactoferrin solution 80 mg/ml): 35%
